Experimental data as given in patent US20240101708A1 (Genentech, published 2024).

T1: recombinant human RNF43 extracellular domain (human, UniProt Q68DV7 24-197)
T1 construct: extracellular domain; also called huRNF43; human RNF43 ECD
T1 sequence (looked up): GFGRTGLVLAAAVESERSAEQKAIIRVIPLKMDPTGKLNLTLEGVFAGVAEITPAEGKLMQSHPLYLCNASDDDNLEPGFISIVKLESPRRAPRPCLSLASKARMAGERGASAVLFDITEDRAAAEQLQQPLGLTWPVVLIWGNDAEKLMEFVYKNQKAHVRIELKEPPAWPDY

B1: RNF43-145 (antibody, V domains shown)
VH: EVQLKESGPGLVQPSQTLSLTCTVSGFSLTDYSVYWVRQPPGKGLEWMGVMWSGGTTAYNSALKSRLSISRDTSKSQVFLKMNSLQTEDTAIYYCTRGGKYDGTYYYGWYFDFWGPGTMVTVSS
VL: DVVLTQSPATLSVTPGERISLSCRASESVDTYLYWYQQKPNESPRLLIKYASQSISGIPSRFSGSGSGTDFTLSINGVELEDLSIYYCQQGNSLPLTFGSGTKLEIK
notes: Rat clone; VH/VL only
B2: RNF43-224 (antibody, V domains shown)
VH: EVQLKESGPGLVQPSQTLSLTCTVSGFSLSDYSVHWVRQPPGKGLEWMGVMWSGGTTAYNSALKSRLSISRDTSKNQVLLEMNSLQTEDTAIYYCTRGGKYDGTYYYGWYFDFWGPGTMVTVSS
VL: DVVLTQSPATLSVTPGERISLSCRASESVDTYLSWYQQKPNESPRLLIKYASQSISGIPSRFSGSGSGTDFTLSINGVELEDLSIYYCQQGNSLPLTFGSGTKLEIK
notes: Rat clone; VH/VL only
B3: RNF43-156 (antibody, V domains shown)
VH: EVQLKESGPGLVQPSQTLSLTCTVSGFSLTDYSVYWVRQPPGKGLEWMGVMWRGGTTAYNSALKSRLSISRDTSKSQVFLKMNSLQTEDTAIYYCTRGGKYDGTYYYGWYFDFWGPGTMVTVSS
VL: DVVLTQSPATLSVTPGERISLSCRASESVDTYLYWYQQKPNESPRLLIKYASQSISGIPSRFSGSGSGTDFTLSINGVELEDLSIYYCQQGNSLPLTFGSGTKLEIK
notes: Rat clone; VH/VL only
B4: RNF43-104 (antibody, V domains shown)
VH: QVQLKESGPGLVQPSQTLSLTCSVSGFSLTSFHVHWVRQPPGKGLEWMGLMWSNGDTSYNSDLKSRLSISRDTSKSQVFLKMHSLQTEDTATYYCARTDVYHGFGAMDAWGQGTSVTVSS
VL: DIQMTQSPSFLSASLGNSITITCHASQFIKGWLAWYQQKSGNAPELLIYKSSSLHSGVPSRFSGSGSGTDYILTISNLQPEDIATYYCQHYQGFPLTFGSGTKLEIK
notes: Rat clone; VH/VL only
B5: RNF43-176 (antibody, V domains shown)
VH: QVQLKESGPGLVQPSQTLSLTCTVSGFSLTSYHVSWVRQPPGKGLEWMGVIWTGGSTAYNSLLKSRLSISRDISKSQVFLKMNSLQTEDTATYYCASQYYGYTSYFDYWGQGVMVTVSS
VL: DIQMTQSPVSLSASPEEIVTITCQASQDIDNWLTWYQQKPGKSPQLLIYSATSLADGIPSRFSGSRSGTQYSLKISRLQIEDTGIYYCLQRYGNPWTFGGGTKLELK
notes: Rat clone; VH/VL only
B6: RNF43-200 (antibody, V domains shown)
VH: QVQLKESGPGLVQPSQTLSLTCTVSGFSLTSYHISWVRQPPGKGLEWMGVIWTGGSTAYNSLLKSRLSISRDISKSQVFLKMNSLQAEDTATYYCAGSYYGYTSYFDYWGQGVMVTVSS
VL: DIQMTQSPASLSASPEEIVTITCQASQDIDNWLAWYQQKPGKSPQLLIYSATRLADGIPSRFSGSRSGIQYSLKINRLQVEDTGIYYCLQRFGNPWTFGGGTKLELK
notes: Rat clone; VH/VL only
B7: RNF43-206 (antibody, V domains shown)
VH: QVQLKESGPGLVQPSQTLSLTCTVSGFSLTSFHISWVRQPPGKGLEWMGIIWTGGSTAYNSLLKSRLSISRDISKSQVFLKMNSLQTEDTATYYCAGSYHGYTSYFDYWGQGVMVTVSS
VL: DIQMTQSPASLSASPEEIVTITCQASQDIDNWLAWYQQQPGKSPQLLIYSATSLADGIPSRFSGSRSGTQYSLKINRLQVEDTGIYYCLQRYSNPWTFGGGTKLELK
notes: Rat clone; VH/VL only
B8: RNF43-168 (antibody, V domains shown)
VH: QVQLKESGPGLVQPSQTLSLTCTVSGFSLNRYHVSWVRQPPGKGLEWMGVVWTGGSTAYNSLLKSRLSISRDISKSQVFLKMISLQTEDTATYYCVSQYYGYTSYFDYWGQGVMVTVSS
VL: DIQMTQSPASLSASPEEIVTVTCQASQDIDNWLTWYQQKPGKSPQLLIYSATSLADGIPSRFSGSRSGTQYSLKIDRLQVEDTGIYYCLQRYGNPWTFGGGTKLELK
notes: Rat clone; VH/VL only
B9: RNF43-116 (antibody, V domains shown)
VH: QVQLQQSGAELAKPGSSVKISCKASGYTFTSYYISWIKQTTGQDLEYIGYVNTRSGGTNYNEKFKVKATLTVDNSSSTAFMQLSSLTPDDSAVYYCARGRTDWGQGTLVTVSS
VL: DIQMTQSPSLLSASVGDRVTVNCKASQNIYKNLEWYQQKHGEAPKLLIYYTNNLQTGISSRFSGSGSGTDYTLTISSLQPEDVATYYCFQYNSGYTFGAGTKLELK
notes: Rat clone; VH/VL only

Biological target: T1, recombinant human RNF43 extracellular …
Test: SPR Biacore 8K; antibody captured on Protein A; RNF43 ECD analyte; 25 C
Experimental: Antibodies were screened for binding to recombinant human RNF43 and ZNRF3 ECDs using a Biacore® 8 k instrument (GE Life Sciences). Briefly, antibodies diluted to 1 μg/ml in 1×HBSP buffer (Cytiva, BR100368) were captured on a Sensor Chip Protein A (GE Life Sciences) using a flow rate of 10 μl/minute and a contact time of 60 seconds. Binding of recombinant human RNF43 and ZNRF3 extracellular domain to the captured antibodies was analyzed at 25° C. using a single cycle kinetics method with a flow rate of 30 μl/minute, a contact time of 180 seconds and a dissociation time of 600 seconds. The concentration of recombinant human RNF43 and ZNRF3 extracellular domain in the single cycle kinetics were 0, 0.8, 4, 20, and 100 nM. Between cycles, the chip was regenerated using 10 mM Glycine HCl pH 1.5 injected for 30 seconds at 30 μl/minute. Data were evaluated using Biacore 8K Evaluation software (GE Life Sciences). Kinetic constants were obtained using a 1:1 binding model with the parameter RI set to zero. Cell surface ligase antibodies with sub-nanomolar affinities may provide advantages in certain instances, for example, in the degradation efficiency which is correlated with the durability of the ternary complex as shown in FIG. 5D.

In order of falling Kd:
1. B4  9.12 nM
2. B5  5.71 nM
3. B9  1.42 nM
4. B8  1.36 nM
5. B2  0.584 nM
6. B7  0.58 nM
7. B6  0.539 nM
8. B1  0.504 nM
9. B3  0.209 nM
